Substitutions are numbered along the chain they refer to.
T1: hiR2-FL-P533A-T7 (human, UniProt Q6PJF5 1-856)
T1 sequence: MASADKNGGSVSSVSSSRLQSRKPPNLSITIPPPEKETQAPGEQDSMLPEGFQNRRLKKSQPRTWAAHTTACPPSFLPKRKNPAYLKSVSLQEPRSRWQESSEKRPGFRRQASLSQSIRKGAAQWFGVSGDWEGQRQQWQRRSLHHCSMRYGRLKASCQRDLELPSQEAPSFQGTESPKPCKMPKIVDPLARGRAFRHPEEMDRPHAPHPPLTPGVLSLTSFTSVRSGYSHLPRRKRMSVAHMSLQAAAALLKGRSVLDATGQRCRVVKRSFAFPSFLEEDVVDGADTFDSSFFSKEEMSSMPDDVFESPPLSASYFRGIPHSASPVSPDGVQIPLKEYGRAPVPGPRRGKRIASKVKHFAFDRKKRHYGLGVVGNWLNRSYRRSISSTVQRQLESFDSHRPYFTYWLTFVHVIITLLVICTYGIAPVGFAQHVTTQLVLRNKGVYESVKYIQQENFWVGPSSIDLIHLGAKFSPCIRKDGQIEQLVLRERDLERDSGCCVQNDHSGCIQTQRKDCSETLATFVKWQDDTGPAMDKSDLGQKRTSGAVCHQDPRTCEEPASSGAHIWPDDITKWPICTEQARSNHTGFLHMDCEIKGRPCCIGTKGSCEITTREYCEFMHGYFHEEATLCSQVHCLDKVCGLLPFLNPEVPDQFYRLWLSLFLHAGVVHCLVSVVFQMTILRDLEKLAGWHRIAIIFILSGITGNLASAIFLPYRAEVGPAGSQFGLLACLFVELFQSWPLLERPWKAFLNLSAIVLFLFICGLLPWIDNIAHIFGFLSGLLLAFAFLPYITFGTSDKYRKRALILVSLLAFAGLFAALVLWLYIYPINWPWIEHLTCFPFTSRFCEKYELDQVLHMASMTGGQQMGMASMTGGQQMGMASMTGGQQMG

T2: hiR2-FL-H505A-T7 (human, UniProt Q6PJF5 1-856)
T2 sequence: T1 sequence with H505A, A533P

B1: antibody 34 (antibody, V domains shown)
VH: QVTLKESGPGILQPSQTLSLTCSFSGFSLSTFSLGVGWIRQSSGKGLEWLAHIWWDDEKYYNPALKSRLTISKDTSKNQVFLKIANVDAADTATYYCARAYYSKSYYALDYWGQGTSVTVSS
VL: DIQMTQSPSSLSASLGERVSLTCRASQEISGYLSWLQQKPDGTIKRLIYAASTLDSGVPKRFSGSRSGSDYSLAISSLESEDFADYYCLQYANFPFTFGSGTKLEIK
notes: mouse IgG, kappa light chain; also called clone #34; purified antibody 34
B2: antibody 50 (antibody, V domains shown)
VH: QVQLQQSGAELVRPGASVKVSCKASGYAFSNYLIEWVKQRPGQGLEWIGVINPGSGFTKYNEKFKGKATLTADKSSSTAYMQLSSLTSEDSAVYFCARGLYRAMDYWGQGTSVTVSS
VL: DIQMTQSPASQSASLGESVTITCLASQTIGTWLAWYQQKPGKSPQLLIYAAASLADGVPSRFSGGGSGTKFSFKISSLQAEDFVNYYCQQIYSTPYTFGGGTKLEIK
notes: mouse IgG, kappa light chain; also called clone #50; purified antibody 50

Experiments:
[1] = biological target: T1, hiR2-FL-P533A-T7; assay: FACS on MEF-DKO cells expressing the variant, 3 µg/ml antibody
In short: (§1)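 Read-out is PE fluorescence by flow cytometry after two-step staining: antibody at 3 μg/ml for 1 hour on ice, then PE-labelled goat anti-mouse IgG F(ab′)2 (1:100) for 1 hour on ice.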

[2] = biological target: T2, hiR2-FL-H505A-T7; assay: as above
In short: as §1

Binder	loss of binding vs wild type [1] [%]	loss of binding vs wild type [2] [%]
B1	≥ 30	
B2		≥ 30

Reference: US20240287172A1 (SCIRHOM, published 2024)
